Source: PMC11754111 (2025)
Values belong to the binder of their own block, whether it stands above or below them. Where no end group is shown, it is not given here.

Experiments:
Test in all cases: ITC
[1] = target: T1, BPTF PHD finger
T1 chain: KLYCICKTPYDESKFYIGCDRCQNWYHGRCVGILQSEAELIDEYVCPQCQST

[2] = target: T2, JARID1A PHD finger
T2 chain: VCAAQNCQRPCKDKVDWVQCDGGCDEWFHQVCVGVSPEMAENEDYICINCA

[3] = target: T3, TAF3 PHD finger
T3 chain: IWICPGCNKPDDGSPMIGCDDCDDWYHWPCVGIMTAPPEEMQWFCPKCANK

[4] = target: T4, JMJDA Tudor domain
T4 chain: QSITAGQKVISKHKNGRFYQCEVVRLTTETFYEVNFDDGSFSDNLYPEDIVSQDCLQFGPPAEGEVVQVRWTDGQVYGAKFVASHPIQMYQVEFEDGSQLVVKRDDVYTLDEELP

B1: H3Q5ser histone H3 tail peptide (ITC) (peptide)
chain: ARTKQTARKSTGGKA
modifications: serotonylated glutamine at 5; C-terminal amide (general statement of the peptide synthesis)
Kd [3]: 3790 nM

B2: H3Q5his histone H3 tail peptide (ITC and crystal) (peptide)
chain: ARTKQTARKSTGGKA
modifications: histaminylated glutamine at 5; C-terminal amide (general statement of the peptide synthesis)
Kd [3]: 7940 nM

B3: H3K4me3Q5ser histone H3 tail peptide (ITC) (peptide)
chain: ARTKQTARKSTGGKA
modifications: trimethyl-lysine at 4; serotonylated glutamine at 5; C-terminal amide (general statement of the peptide synthesis)
Kd [1]: 2720 nM | Kd [4]: 3610 nM | Kd [2]: 2900 nM

Binder: ARTKQTARKSTGGKA-NH2 [unmodified histone H3 N-terminal tail peptide (ITC)]
Kd [3]: 21500 nM

Further lines, results first:

Kd [1]: 1810 nM | Kd [2]: 1680 nM
Binder: ARTK(Me3)QTARKSTGGKA-NH2 [H3K4me3 histone H3 tail peptide (ITC)]

Kd [1]: 1940 nM | Kd [4]: 2300 nM | Kd [2]: 1850 nM
B4: H3K4me3Q5his histone H3 tail peptide (ITC) (peptide)
chain: ARTKQTARKSTGGKA
modifications: trimethyl-lysine at 4; histaminylated glutamine at 5; C-terminal amide (general statement of the peptide synthesis)
